B1: Oxysterols receptor LXR-beta (Homo sapiens), P55055 (parent)
chain: MSSPTTSSLDTPLPGNGPPQPGAPSSSPTVKEEGPEPWPGGPDPDVPGTDEASSACSTDWVIPDPEEEPERKRKKGPAPKMLGHELCRVCGDKASGFHYNVLSCEGCKGFFRRSVVRGGARRYACRGGGTCQMDAFMRRKCQQCRLRKCKEAGMREQCVLSEEQIRKKKIRKQQQESQSQSQSPVGPQGSSSSASGPGASPGGSEAGSQGSGEGEGVQLTAAQELMIQQLVAAQLQCNKRSFSDQPKVTPWPLGADPQSRDARQQRFAHFTELAIISVQEIVDFAKQVPGFLQLGREDQIALLKASTIEIMLLETARRYNHETECITFLKDFTYSKDDFHRAGLQVEFINPIFEFSRAMRRLGLDDAEYALLIAINIFSADRPNVQEPGRVEALQQPYVEALLSYTRIKRPQDQLRFPRMLMKLVSLRTLSSVHSEQVFALRLQDKKLPPLLSEIWDVHE
B2: Oxysterols receptor LXR-beta (Homo sapiens), P55055 (parent)
chain: B1 chain
partner: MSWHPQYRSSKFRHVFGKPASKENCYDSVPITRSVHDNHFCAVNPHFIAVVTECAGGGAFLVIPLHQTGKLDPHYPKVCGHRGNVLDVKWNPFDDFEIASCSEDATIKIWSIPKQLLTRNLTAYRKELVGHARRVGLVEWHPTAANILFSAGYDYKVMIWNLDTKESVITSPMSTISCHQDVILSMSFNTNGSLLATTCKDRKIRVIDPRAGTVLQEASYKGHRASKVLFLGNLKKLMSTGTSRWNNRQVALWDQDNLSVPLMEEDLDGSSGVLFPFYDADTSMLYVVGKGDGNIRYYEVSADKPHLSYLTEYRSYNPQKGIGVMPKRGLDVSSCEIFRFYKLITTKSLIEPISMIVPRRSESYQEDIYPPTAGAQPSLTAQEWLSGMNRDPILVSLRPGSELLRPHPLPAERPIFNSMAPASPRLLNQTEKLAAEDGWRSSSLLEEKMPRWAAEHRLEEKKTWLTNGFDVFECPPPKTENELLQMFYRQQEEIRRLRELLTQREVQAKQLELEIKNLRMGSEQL
B3: Oxysterols receptor LXR-beta (Homo sapiens), P55055 (parent)
chain: B1 chain
partner: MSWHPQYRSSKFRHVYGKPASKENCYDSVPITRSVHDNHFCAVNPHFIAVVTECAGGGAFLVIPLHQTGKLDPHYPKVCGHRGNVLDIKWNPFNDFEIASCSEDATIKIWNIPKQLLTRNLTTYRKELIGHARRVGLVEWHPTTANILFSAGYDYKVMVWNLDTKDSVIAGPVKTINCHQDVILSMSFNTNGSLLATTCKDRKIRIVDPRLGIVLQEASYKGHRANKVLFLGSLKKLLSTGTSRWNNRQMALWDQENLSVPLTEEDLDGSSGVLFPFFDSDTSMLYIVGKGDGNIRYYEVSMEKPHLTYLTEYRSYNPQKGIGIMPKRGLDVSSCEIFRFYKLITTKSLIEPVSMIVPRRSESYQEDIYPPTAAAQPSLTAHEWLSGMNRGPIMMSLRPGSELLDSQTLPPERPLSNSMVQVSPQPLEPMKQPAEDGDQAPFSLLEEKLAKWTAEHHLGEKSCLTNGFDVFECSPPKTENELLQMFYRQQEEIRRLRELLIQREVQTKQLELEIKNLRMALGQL

Variants of: B1
Conditions: with senp3_mouse Senp3, Q9EP97
Chain of senp3_mouse Senp3, Q9EP97 (Q9EP97 whole entry): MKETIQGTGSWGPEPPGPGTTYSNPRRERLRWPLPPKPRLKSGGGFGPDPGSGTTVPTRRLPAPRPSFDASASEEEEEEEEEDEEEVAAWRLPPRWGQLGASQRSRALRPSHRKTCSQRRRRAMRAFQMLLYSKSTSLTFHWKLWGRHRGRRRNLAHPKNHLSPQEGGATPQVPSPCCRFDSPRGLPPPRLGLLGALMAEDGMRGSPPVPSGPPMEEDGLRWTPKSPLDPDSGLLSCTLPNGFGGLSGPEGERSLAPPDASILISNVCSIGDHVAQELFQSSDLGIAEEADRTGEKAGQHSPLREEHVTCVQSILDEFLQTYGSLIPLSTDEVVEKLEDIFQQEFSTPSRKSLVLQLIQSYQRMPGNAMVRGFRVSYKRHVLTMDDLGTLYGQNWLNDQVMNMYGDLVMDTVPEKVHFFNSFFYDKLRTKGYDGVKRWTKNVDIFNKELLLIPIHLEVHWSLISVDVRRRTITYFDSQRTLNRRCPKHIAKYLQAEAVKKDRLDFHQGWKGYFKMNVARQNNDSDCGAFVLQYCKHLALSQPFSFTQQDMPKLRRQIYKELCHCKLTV

effect of a mutation on the interaction	Variant
disrupting interaction	S426A

Variants of: B2
Conditions: with cor2a_human CORO2A

effect of a mutation on the interaction	Variant
disrupting interaction	K409R;K447R

Variants of: B3
Conditions: with cor2a_mouse Coro2a

effect of a mutation on the interaction	Variant
disrupting interaction	S426D
